The values that follow come from paper doi:10.1101/2022.10.31.514592 (bioRxiv, 2022).

A value given as a limit tells only on which side of the number the result lay.

The target of assay [1] is T1, spike WT-6P (SARS-CoV-2, wildtype (Wuhan-Hu-1 type), UniProt P0DTC2, stabilised, biotinylated (EZ-Link Sulfo-NHS-Biotin) for BLI). As to the kind of experiment: BLI. (Biolayer interferometry detects binding as a change in optical thickness at a sensor tip.)
The target in the next assay is spike BA.1 Omicron-6P (SARS-CoV-2, Omicron BA.1, strain, biotinylated (EZ-Link Sulfo-NHS-Biotin) for BLI). As to the kind of experiment: ELISA.
In assay [2] the target is T1, spike WT-6P. The assay is described as follows: ELISA. In general terms: In an ELISA, binding on a coated surface is turned into a signal by an enzyme label.

B1: S451-1140 IgG (antibody, V domains shown)
VH: EVQLVESGGGLVPPGGSLRLSCAASGFIFSNYAMTWVRQAPGKGLEWVSAISGGGGSTDYADSVKGRFTISRDNSKNTLYLQMNSLRAEDTAVYYCAKDLFGSGWSLFDNWGQGTLVTVSS
VL: not shown
Take B1: the binding result with spike WT-6P [1] was “binds”. For the same molecule, the “fold increase of ELISA binding compared with spike BA.1-2P” value (shortened to “fold increase of ELISA binding”) with spike BA.1 Omicron-6P was greater than 3 fold.

B2: S451-1140 Fab (Fab, V domains shown)
VH: B1 VH
VL: not shown
Regarding B2, the binding result with spike WT-6P [1] is recorded as “binds”.

B3: S626-161 IgG (antibody, V domains shown)
VH: QLQLQESGPGLVKPSEALSLTCTVSGGSISTSNYYWGWIRQPPGKGLEWIGSIYYRGGTHYNPSLKTRVTISVDTSKNQFSLKLSSVTAADTAVYYCARHTYFYDIVGAAVWEPFDIWGQGTMVTVSS
VL: not shown
On to B3, for which, in the assay with spike WT-6P [2], the binding result is reported as “binds”. In addition, the “fold increase of ELISA binding” value in the assay with spike BA.1 Omicron-6P is greater than 3 fold.

B4: S626-161 Fab (Fab, V domains shown)
VH: B3 VH
VL: not shown
As to B4, the binding result in the assay with spike WT-6P [1] is reported as “binds”.

B5: S728-1157 IgG (antibody, V domains shown)
VH: EVQLVESGGGLVQPGGSLRLSCAASGLLVSRNYMNWVRQAPGKGLEWVSIIYSGGSTFYADSVEGRFTISRDESKNTLYLQMNSLRTDDTAVYYCARDLSDYGGIDCWGQGTLVTVSS
VL: ELTQPLSVSMALGQTARISCGGDNVGSQNVHWYQQRPGQAPVLVIYRDSNRPSGIPERFSGSKSGNTATLTISRAQAGDEADYYCQVWDSSTVAFGGGTKLTVL
On to B5, for which the binding result with spike WT-6P [1] was “binds”. Further, the “fold increase of ELISA binding” value with spike BA.1 Omicron-6P is greater than 3 fold.

B6: S728-1157 Fab (Fab, V domains shown)
VH: B5 VH
VL: B5 VL
For B6, the binding result with spike WT-6P [1] is “binds”.
